Results taken from PMC9638722, “Light regulates xylem cell differentiation via PIF in Arabidopsis”.

T1: PIF4 (Arabidopsis thaliana, UniProt Q8W2F3 1-430)
T1 sequence: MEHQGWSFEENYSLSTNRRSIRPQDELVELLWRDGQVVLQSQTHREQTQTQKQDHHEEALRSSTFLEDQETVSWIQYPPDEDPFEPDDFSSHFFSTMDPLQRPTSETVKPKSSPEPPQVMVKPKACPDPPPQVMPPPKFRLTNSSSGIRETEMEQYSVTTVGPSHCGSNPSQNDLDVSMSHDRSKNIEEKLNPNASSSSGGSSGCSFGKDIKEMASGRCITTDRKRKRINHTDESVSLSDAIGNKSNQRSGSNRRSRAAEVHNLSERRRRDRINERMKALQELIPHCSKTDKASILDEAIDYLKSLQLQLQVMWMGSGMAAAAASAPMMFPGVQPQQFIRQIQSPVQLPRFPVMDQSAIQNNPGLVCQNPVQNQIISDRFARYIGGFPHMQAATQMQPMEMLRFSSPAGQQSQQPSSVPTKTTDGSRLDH

B1: pCLE44 PBE1 WT (dsDNA)
DNA 1: GTAATATAGTGAGGTGGTCACATGTAATGGATTCAATCCAC
DNA 2: GTGGATTGAATCCATTACATGTGACCACCTCACTATATTAC
B2: pPIL1 G-box (dsDNA)
DNA 1: TAATGGCGTGAAGGTTCTTTCCGCTCACGTGGGCCTTTTG
DNA 2: CAAAAGGCCCACGTGAGCGGAAAGAACCTTCACGCCATTA

Key:
PIF4 [1] = biological target: T1, PIF4; test: EMSA; EMSA according to Martinez et al. 2018 with minor modifications, LightShift chemiluminescent kit; buffer, salt, pH and temperature not stated; settings: protein: ivt; label: 5' biotin (probe); blunt
PIF4 [2] = biological target: T1, PIF4; test: EMSA; positive control; EMSA according to Martinez et al. 2018 with minor modifications, LightShift chemiluminescent kit; buffer, salt, pH and temperature not stated; settings: protein: ivt; label: 5' biotin; blunt

Row | Binder | binding result (PIF4 [1]) | binding result (PIF4 [2])
1 | B1 | binds | –
2 | B2 | – | binds
